± gives the standard deviation of the averaged measurements.
System: ATP
Assay: switch fluorescence ratio, 500 uM ATP over buffer (Cy3 cluster intensity, sum of 5 cycles each) (fold (ratio)); higher = stronger signal-on switching upon ATP binding; sequences stand for … in TCGTCGGCAGCGTCAGATGTGTATAAGAGACAGTTTTTTTTTTTTTTTTTTTTTTTTT…TC
Conditions: aptamer strand: ATP DNA aptamer (quencher-CACCTGGGGGAGTATTGCGGAGGAAGG + anchor), 100 nM annealed; ATP concentration: 500 uM
How it was run: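 Imaging in selection buffer was followed by imaging after 15 min with 500 uM ATP at 22 °C, for Cy3-labelled switching-strand clusters annealed to 100 nM quencher-labelled ATP aptamer on a modified Illumina MiSeq flow-cell. Five of these buffer/ATP cycles ran, separated by NaOH stripping and re-annealing. The fluorescence ratio per cluster is summed target-cycle over summed buffer-cycle Cy3 intensity, averaged per switch-domain sequence; clusters outside 100-1000 RFU were removed.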
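Further: ATP exposure 15 min at 22 °C before imaging.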

TTTGTGGACG and TTTGTGGCTG are within error of each other in switch fluorescence ratio: 1.08 ± 0.08 for the first, 0.986 ± 0.037 for the second.

TTTGTGGGC and TTTGTGGGTA are within error of each other in switch fluorescence ratio: 0.981 ± 0.028 for the first, 1.01 ± 0.039 for the second.

TTTGTGGTGG and TTTGTGTAAA are within error of each other in switch fluorescence ratio: 1.01 ± 0.012 for the first, 1 ± 0.032 for the second.

First: TTTGTGTGCG
Second: TTTGTGTGGA
The switch fluorescence ratio of the first is lower: 0.904 ± 0.047 for the first, 1.03 ± 0.0059 for the second.

TTTGTGTGGG and TTTGTTAAG are within error of each other in switch fluorescence ratio: 1.03 ± 0.03 for the first, 1.02 ± 0.018 for the second.

TTTGTTAGAT and TTTGTTAGGT are within error of each other in switch fluorescence ratio: 0.993 ± 0.022 for the first, 1 ± 0.031 for the second.

TTTGTTATAT and TTTGTTCGGA are within error of each other in switch fluorescence ratio: 0.9839 ± 0.0039 for the first, 0.9795 ± 0.0059 for the second.

TTTGTTGAAA and TTTGTTGAGC are within error of each other in switch fluorescence ratio: 1.02 ± 0.018 for the first, 1.44 ± 0.66 for the second.

TTTGTTGAGT and TTTGTTGATA are within error of each other in switch fluorescence ratio: 1 ± 0.026 for the first, 0.983 ± 0.032 for the second.

TTTGTTGGTG and TTTGTTTAAA are within error of each other in switch fluorescence ratio: 1 ± 0.029 for the first, 0.974 ± 0.027 for the second.

Compared with TTTGTTTAAG, TTTGTTTCAC is higher in switch fluorescence ratio: 0.973 ± 0.012 for the first, 1.04 ± 0.043 for the second.

TTTGTTTGCA and TTTGTTTGTA are the same in switch fluorescence ratio: 1.01 ± 0.054 for the first, 1.01 ± 0.017 for the second.

TTTGTTTTAG and TTTGTTTTAT are within error of each other in switch fluorescence ratio: 0.983 ± 0.031 for the first, 1 ± 0.034 for the second.

TTTGTTTTTT and TTTTAAAACT are within error of each other in switch fluorescence ratio: 0.994 ± 0.03 for the first, 1.05 ± 0.039 for the second.

First: TTTTAAACAG
Second: TTTTAAAGGA
The switch fluorescence ratio of the first is higher: 1.028 ± 0.0066 for the first, 1 ± 0.023 for the second.

TTTTAAAGGC and TTTTAAATAG are within error of each other in switch fluorescence ratio: 1.02 ± 0.031 for the first, 1.01 ± 0.024 for the second.

Compared with TTTTAACACT, TTTTAACCGG is lower in switch fluorescence ratio: 1.035 ± 0.0085 for the first, 0.974 ± 0.025 for the second.

TTTTAACCTA and TTTTAACGGA are within error of each other in switch fluorescence ratio: 1.01 ± 0.019 for the first, 1.03 ± 0.041 for the second.

TTTTAAGAAA and TTTTAAGAGT are within error of each other in switch fluorescence ratio: 3.11 ± 3 for the first, 0.992 ± 0.028 for the second.

Going from TTTTAAGATT to TTTTAAGCAA, the switch fluorescence ratio rises from 0.999 ± 0.047 to 1.53 ± 0.17.

TTTTAAGCCG and TTTTAAGGAT are within error of each other in switch fluorescence ratio: 1.01 ± 0.069 for the first, 1 ± 0.024 for the second.

TTTTAAGGGG and TTTTAAGTCG are within error of each other in switch fluorescence ratio: 1.02 ± 0.046 for the first, 1.05 ± 0.014 for the second.

TTTTAAGTGC and TTTTAATCAG are within error of each other in switch fluorescence ratio: 1 ± 0.027 for the first, 0.9842 ± 0.0036 for the second.

TTTTAATGGT and TTTTAATTAT are within error of each other in switch fluorescence ratio: 1.02 ± 0.03 for the first, 1.05 ± 0.026 for the second.

TTTTAATTG and TTTTAATTTA are within error of each other in switch fluorescence ratio: 0.961 ± 0.038 for the first, 1.03 ± 0.043 for the second.

TTTTACAAGT and TTTTACAATT are within error of each other in switch fluorescence ratio: 0.982 ± 0.03 for the first, 0.9885 ± 0.0015 for the second.

TTTTACAGCC and TTTTACCAG are within error of each other in switch fluorescence ratio: 1.052 ± 0.0051 for the first, 1.02 ± 0.051 for the second.

TTTTACCGAT and TTTTACCGT are within error of each other in switch fluorescence ratio: 1.01 ± 0.034 for the first, 0.996 ± 0.012 for the second.

First: TTTTACCTAT
Second: TTTTACGTCA
The switch fluorescence ratio of the first is lower: 1.04 ± 0.021 for the first, 1.21 ± 0.073 for the second.

TTTTACTGAT and TTTTACTTGG are within error of each other in switch fluorescence ratio: 1.02 ± 0.026 for the first, 0.993 ± 0.015 for the second.

TTTTACTTTT and TTTTAGAGAG are within error of each other in switch fluorescence ratio: 1.01 ± 0.037 for the first, 0.997 ± 0.019 for the second.

First: TTTTAGAGCG
Second: TTTTAGAGGA
The switch fluorescence ratio of the first is higher: 1.02 ± 0.025 for the first, 0.9736 ± 0.0013 for the second.

TTTTAGATTT and TTTTAGGATG are within error of each other in switch fluorescence ratio: 0.995 ± 0.026 for the first, 0.996 ± 0.025 for the second.

TTTTAGGCAT and TTTTAGGGGA are the same in switch fluorescence ratio: 1.01 ± 0.031 for the first, 1.01 ± 0.025 for the second.

TTTTAGGGGT and TTTTAGGTCA are within error of each other in switch fluorescence ratio: 1.02 ± 0.046 for the first, 0.9901 ± 0.0063 for the second.

TTTTAGTCGT and TTTTAGTGCC are within error of each other in switch fluorescence ratio: 0.991 ± 0.02 for the first, 1.01 ± 0.04 for the second.

TTTTAGTGTT and TTTTAGTTAG are within error of each other in switch fluorescence ratio: 1 ± 0.013 for the first, 1.03 ± 0.058 for the second.

TTTTATATGG and TTTTATCGAG are within error of each other in switch fluorescence ratio: 0.986 ± 0.021 for the first, 0.9893 ± 0.0093 for the second.

TTTTATCGGT and TTTTATCTTT are within error of each other in switch fluorescence ratio: 0.979 ± 0.012 for the first, 1 ± 0.015 for the second.

TTTTATGAG and TTTTATGCGG are within error of each other in switch fluorescence ratio: 0.999 ± 0.031 for the first, 0.974 ± 0.019 for the second.

TTTTATGCGT and TTTTATGGCT are within error of each other in switch fluorescence ratio: 0.993 ± 0.033 for the first, 0.982 ± 0.04 for the second.

TTTTATGGGA and TTTTATGTAA are within error of each other in switch fluorescence ratio: 0.9849 ± 0.0032 for the first, 0.996 ± 0.032 for the second.

Sequence TTTTATGTCT has a switch fluorescence ratio of 0.976 ± 0.03.

From the supplement of paper PMC10126150
